{
  "source": "patent US12692514B2",
  "about": "“Living cells engineered with polyphenol-functionalized biologically active nanocomplexes” (PRESIDENT AND FELLOWS OF HARVARD COLLEGE, priority 2020, dated 2026)",
  "molecules": {"B1": {"name": "free OVA: free ovalbumin protein, control counterpart (protein, UniProt P01012 2-386, looked up)", "Ovalbumin": "GSIGAASMEFCFDVFKELKVHHANENIFYCPIAIMSALAMVYLGAKDSTRTQINKVVRFDKLPGFGDSIEAQCGTSVNVHSSLRDILNQITKPNDVYSFSLASRLYAEERYPILPEYLQCVKELYRGGLEPINFQTAADQARELINSWVESQTNGIIRNVLQPSSVDSQTAMVLVNAIVFKGLWEKAFKDEDTQAMPFRVTEQESKPVQMMYQIGLFRVASMASEKMKILELPFASGTMSMLVLLPDEVSGLEQLESIINFEKLTEWTSSNVMEERKIKVYLPRMKMEEKYNLTSVLMAMGITDVFSSSANLSGISSAESLKISQAVHAAHAEINEAGREVVGSAEAGVDAASVSEEFRADHPFLFCIKHIATNAVLFFGRCVSP"}},
  "assay": "In vivo biodistribution after intravenous administration (IVIS)",
  "set-up": "species or system C57BL/6 mice",
  "conditions": "5 min (0.08 hour) after administration",
  "protocol": "(FIG. 3A) IVIS images of excised mouse lungs 5 min (0.08 hours) after the administration of OVA protein only and OVA/Erythrocyteplex. […] OVA was used for the fluorescence signal. (FIG. 3B) Biodistribution of OVA only and OVA/Erythrocyteplex 5 min after intravenous (IV) administration. (FIG. 3C) Biodistribution of OVA only and OVA/Erythrocyteplex 6 hours after IV administration. (FIG. 3D) Biodistribution of OVA only and OVA/Erythrocyteplex 24 hours after IV administration. (FIG. 3E) Lung to liver ratio of OVA delivered by the control counterpart and OVA/Erythrocyteplex throughout the entire measurement window. (FIG. 3F) Remaining OVA delivered by Erythrocyteplex through the time after 24 hours post-injection. […] Variation is represented by SE (error bars) from three independent replicates for all data points. (FIG. 3G) Confocal florescence microscopy images of lung vascular capillary sections 5 min. […]\nFemale 50-56 days old C57BL/6 mice (n=3-6 per group) were administered intravenously using a with OVA-Erythrocyteplex coated with 30 ug/mL OVA. […] Each organ was placed in a 6 well tissue culture plate (Falcon); blood (50 μL) was placed in a heparinized microcapillary tube (Drummond Scientific) and far red fluorescence signal for each organ was imaged using Perkin Elmer IVIS small animal imaging system. Far red signals were quantified using LivingImage software.",
  "data": [
    {"molecule": "B1", "values": [
      {"measurement": "signal in the liver", "value": "strong signal intensities in the liver"}
    ]}
  ]
}
